Measured values: the FLAb antibody collection (doi:10.7554/elife.23156)

B1: scFv; the commonest letter at each place (parent)
chain 1: EVKLDETGGGLVQPGRPMKLSCVASGFTFSDYWMNWVRQSPEKGLEWVAQIRNKPYNYETYYSDSVKGRFTISRDDSKSSVYLQMNNLRVEDMGIYYCTGSYYGMDYWGQGTSVTVS
chain 2: DVVMTQTPLSLPVSLGDQASISCRSSQSLVHSNGNTYLRWYLQKPGQSPKVLIYKVSNRFSGVPDRFSGSGSGTDFTLKISRVEAEDLGVYFCSQSTHVPWTFGGGTKLEIK

Experiments:
[1] = variants of: B1; assay: Kd (Tite-Seq); details: with fluorescein; format: scFv 4-4-20, heavy + light
[2] = variants of: B1; assay: yeast surface expression (ratio to wild type); higher = more expressed; details: format: scFv 4-4-20, heavy + light

chain 1 S101K G104W M105V
Kd [1]: ≥ 10 µM
yeast surface expression [2]: 0.205

chain 1 S101K Y102I
Kd [1]: ≥ 10 µM
yeast surface expression [2]: 0.647

chain 1 S101K Y103R
Kd [1]: ≥ 10 µM
yeast surface expression [2]: 0.714

chain 1 S101K Y103S
Kd [1]: ≥ 10 µM
yeast surface expression [2]: 0.461

chain 1 S101K Y103T
Kd [1]: ≥ 10 µM
yeast surface expression [2]: 0.456

chain 1 S101K Y107V
Kd [1]: ≥ 10 µM
yeast surface expression [2]: 0.507

chain 1 S101L
Kd [1]: ≥ 10 µM
yeast surface expression [2]: 0.497

chain 1 S101L D106G
Kd [1]: ≥ 10 µM
yeast surface expression [2]: 0.289

chain 1 S101L D106K
Kd [1]: ≥ 10 µM
yeast surface expression [2]: 0.379

chain 1 S101L G104I
Kd [1]: ≥ 10 µM
yeast surface expression [2]: 0.452

chain 1 S101L G104S
Kd [1]: ≥ 10 µM
yeast surface expression [2]: 0.326

chain 1 S101L G109I
Kd [1]: ≥ 10 µM
yeast surface expression [2]: 0.297

chain 1 S101L M105D D106L
Kd [1]: ≥ 10 µM
yeast surface expression [2]: 0.276

chain 1 S101L M105F
Kd [1]: ≥ 10 µM
yeast surface expression [2]: 0.521

chain 1 S101L M105L
Kd [1]: ≥ 10 µM
yeast surface expression [2]: 0.334

chain 1 S101L Y102A
Kd [1]: ≥ 10 µM
yeast surface expression [2]: 0.514

chain 1 S101L Y102V
Kd [1]: ≥ 10 µM
yeast surface expression [2]: 0.401

chain 1 S101L Y102W
Kd [1]: ≥ 10 µM
yeast surface expression [2]: 0.407

chain 1 S101L Y103I
Kd [1]: ≥ 10 µM
yeast surface expression [2]: 0.229

chain 1 S101L Y103K
Kd [1]: ≥ 10 µM
yeast surface expression [2]: 0.524

chain 1 S101L Y103Q
Kd [1]: ≥ 10 µM
yeast surface expression [2]: 0.786

chain 1 S101L Y103R
Kd [1]: ≥ 10 µM
yeast surface expression [2]: 0.702

chain 1 S101L Y103S M105A
Kd [1]: ≥ 10 µM
yeast surface expression [2]: 0.713

chain 1 S101L Y103W Y107W
Kd [1]: ≥ 10 µM
yeast surface expression [2]: 0.29

chain 1 S101M
Kd [1]: ≥ 10 µM
yeast surface expression [2]: 0.591

chain 1 S101M D106G
Kd [1]: ≥ 10 µM
yeast surface expression [2]: 0.323

chain 1 S101M G104I
Kd [1]: ≥ 10 µM
yeast surface expression [2]: 0.274

chain 1 S101M G104W
Kd [1]: ≥ 10 µM
yeast surface expression [2]: 0.278

chain 1 S101M G109H
Kd [1]: ≥ 10 µM
yeast surface expression [2]: 0.229

chain 1 S101M G109W
Kd [1]: ≥ 10 µM
yeast surface expression [2]: 0.231

chain 1 S101M W108G
Kd [1]: ≥ 10 µM
yeast surface expression [2]: 0.228

chain 1 S101M Y103A
Kd [1]: ≥ 10 µM
yeast surface expression [2]: 0.658

chain 1 S101M Y103D
Kd [1]: ≥ 10 µM
yeast surface expression [2]: 0.917

chain 1 S101M Y103G
Kd [1]: ≥ 10 µM
yeast surface expression [2]: 0.868

chain 1 S101M Y107H
Kd [1]: ≥ 10 µM
yeast surface expression [2]: 0.483

chain 1 S101N
Kd [1]: ≥ 10 µM
yeast surface expression [2]: 0.886

chain 1 S101N G104N
Kd [1]: ≥ 10 µM
yeast surface expression [2]: 0.806

chain 1 S101N G109D
Kd [1]: ≥ 10 µM
yeast surface expression [2]: 0.316

chain 1 S101N G109N
Kd [1]: ≥ 10 µM
yeast surface expression [2]: 0.267

chain 1 S101N M105P
Kd [1]: ≥ 10 µM
yeast surface expression [2]: 0.537

chain 1 S101N W108D
Kd [1]: ≥ 10 µM
yeast surface expression [2]: 0.399

chain 1 S101N W108P
Kd [1]: ≥ 10 µM
yeast surface expression [2]: 0.506

chain 1 S101N Y102M
Kd [1]: ≥ 10 µM
yeast surface expression [2]: 0.944

chain 1 S101N Y103C
Kd [1]: ≥ 10 µM
yeast surface expression [2]: 0.438

chain 1 S101N Y103L
Kd [1]: ≥ 10 µM
yeast surface expression [2]: 0.964

chain 1 S101N Y103N
Kd [1]: ≥ 10 µM
yeast surface expression [2]: 1.21

chain 1 S101N Y107M
Kd [1]: ≥ 10 µM
yeast surface expression [2]: 0.616

chain 1 S101P
Kd [1]: ≥ 10 µM
yeast surface expression [2]: 0.244

chain 1 S101P D106G W108F
Kd [1]: ≥ 10 µM
yeast surface expression [2]: 0.244

chain 1 S101P G104T M105Y
Kd [1]: ≥ 10 µM
yeast surface expression [2]: 0.208

chain 1 S101P G104W
Kd [1]: ≥ 10 µM
yeast surface expression [2]: 0.299

chain 1 S101P W108T
Kd [1]: ≥ 10 µM
yeast surface expression [2]: 0.168

chain 1 S101P Y102V W108C
Kd [1]: ≥ 10 µM
yeast surface expression [2]: 0.1

chain 1 S101P Y103R
Kd [1]: ≥ 10 µM
yeast surface expression [2]: 0.277

chain 1 S101P Y107F W108F
Kd [1]: ≥ 10 µM
yeast surface expression [2]: 0.239

chain 1 S101Q
Kd [1]: ≥ 10 µM
yeast surface expression [2]: 0.788

chain 1 S101Q D106N
Kd [1]: ≥ 10 µM
yeast surface expression [2]: 0.555

chain 1 S101Q G104P
Kd [1]: ≥ 10 µM
yeast surface expression [2]: 0.539

chain 1 S101Q G104R
Kd [1]: ≥ 10 µM
yeast surface expression [2]: 0.384

chain 1 S101Q G104V
Kd [1]: ≥ 10 µM
yeast surface expression [2]: 0.296

chain 1 S101Q G109S
Kd [1]: ≥ 10 µM
yeast surface expression [2]: 0.645

chain 1 S101Q M105S
Kd [1]: ≥ 10 µM
yeast surface expression [2]: 0.853

chain 1 S101Q M105V
Kd [1]: ≥ 10 µM
yeast surface expression [2]: 0.835

chain 1 S101Q M105Y
Kd [1]: ≥ 10 µM
yeast surface expression [2]: 0.795

chain 1 S101Q Y102D W108I
Kd [1]: ≥ 10 µM
yeast surface expression [2]: 0.495

chain 1 S101Q Y102D Y107P
Kd [1]: ≥ 10 µM
yeast surface expression [2]: 0.361

chain 1 S101Q Y102R
Kd [1]: ≥ 10 µM
yeast surface expression [2]: 1.07

chain 1 S101Q Y103L D106G
Kd [1]: ≥ 10 µM
yeast surface expression [2]: 0.41

chain 1 S101R
Kd [1]: ≥ 10 µM
yeast surface expression [2]: 0.731

chain 1 S101R D106L
Kd [1]: ≥ 10 µM
yeast surface expression [2]: 0.0991

chain 1 S101R D106N
Kd [1]: ≥ 10 µM
yeast surface expression [2]: 0.225

chain 1 S101R D106T
Kd [1]: ≥ 10 µM
yeast surface expression [2]: 0.466

chain 1 S101R G104P
Kd [1]: ≥ 10 µM
yeast surface expression [2]: 0.361

chain 1 S101R G104T
Kd [1]: ≥ 10 µM
yeast surface expression [2]: 0.647

chain 1 S101R G109M
Kd [1]: ≥ 10 µM
yeast surface expression [2]: 0.251

chain 1 S101R G109Q
Kd [1]: ≥ 10 µM
yeast surface expression [2]: 0.201

chain 1 S101R W108H
Kd [1]: ≥ 10 µM
yeast surface expression [2]: 0.261

chain 1 S101R W108L
Kd [1]: ≥ 10 µM
yeast surface expression [2]: 0.22

chain 1 S101R W108Q
Kd [1]: ≥ 10 µM
yeast surface expression [2]: 0.346

chain 1 S101R W108V
Kd [1]: ≥ 10 µM
yeast surface expression [2]: 0.24

chain 1 S101R Y103K
Kd [1]: ≥ 10 µM
yeast surface expression [2]: 0.984

chain 1 S101R Y107C
Kd [1]: ≥ 10 µM
yeast surface expression [2]: 0.286

chain 1 S101R Y107I
Kd [1]: ≥ 10 µM
yeast surface expression [2]: 0.812

chain 1 S101R Y107L
Kd [1]: ≥ 10 µM
yeast surface expression [2]: 0.862

chain 1 S101T
Kd [1]: ≥ 10 µM
yeast surface expression [2]: 0.88

chain 1 S101T D106Q
Kd [1]: ≥ 10 µM
yeast surface expression [2]: 0.796

chain 1 S101T G104F
Kd [1]: ≥ 10 µM
yeast surface expression [2]: 0.437

chain 1 S101T M105S
Kd [1]: ≥ 10 µM
yeast surface expression [2]: 0.699

chain 1 S101T M105T
Kd [1]: ≥ 10 µM
yeast surface expression [2]: 0.928

chain 1 S101T W108C
Kd [1]: ≥ 10 µM
yeast surface expression [2]: 0.471

chain 1 S101T Y102H
Kd [1]: ≥ 10 µM
yeast surface expression [2]: 0.748

chain 1 S101T Y102M
Kd [1]: ≥ 10 µM
yeast surface expression [2]: 0.778

chain 1 S101T Y103E G104K
Kd [1]: ≥ 10 µM
yeast surface expression [2]: 0.854

chain 1 S101T Y103P
Kd [1]: ≥ 10 µM
yeast surface expression [2]: 0.643

chain 1 S101T Y103Q
Kd [1]: ≥ 10 µM
yeast surface expression [2]: 1.11

chain 1 S101T Y103Q G109I
Kd [1]: ≥ 10 µM
yeast surface expression [2]: 0.258

chain 1 S101T Y107E
Kd [1]: ≥ 10 µM
yeast surface expression [2]: 0.565

chain 1 S101V
Kd [1]: ≥ 10 µM
yeast surface expression [2]: 0.496

chain 1 S101V D106I Y107C
Kd [1]: ≥ 10 µM
yeast surface expression [2]: 0.165

chain 1 S101V G109P
Kd [1]: ≥ 10 µM
yeast surface expression [2]: 0.223

chain 1 S101V M105H
Kd [1]: ≥ 10 µM
yeast surface expression [2]: 0.496

chain 1 S101V M105H W108H
Kd [1]: ≥ 10 µM
yeast surface expression [2]: 0.3

chain 1 S101V M105N
Kd [1]: ≥ 10 µM
yeast surface expression [2]: 0.675

chain 1 S101V Y102E
Kd [1]: ≥ 10 µM
yeast surface expression [2]: 0.509

chain 1 S101V Y102V
Kd [1]: ≥ 10 µM
yeast surface expression [2]: 0.432

chain 1 S101V Y103F D106V
Kd [1]: ≥ 10 µM
yeast surface expression [2]: 0.283

chain 1 S101V Y103V
Kd [1]: ≥ 10 µM
yeast surface expression [2]: 0.316

chain 1 S101V Y107H
Kd [1]: ≥ 10 µM
yeast surface expression [2]: 0.556

chain 1 S101W
Kd [1]: ≥ 10 µM
yeast surface expression [2]: 0.618

chain 1 S101W D106I
Kd [1]: ≥ 10 µM
yeast surface expression [2]: 0.296

chain 1 S101W D106S
Kd [1]: ≥ 10 µM
yeast surface expression [2]: 0.516

chain 1 S101W G104H
Kd [1]: ≥ 10 µM
yeast surface expression [2]: 0.376

chain 1 S101W G104W
Kd [1]: ≥ 10 µM
yeast surface expression [2]: 0.254

chain 1 S101W G104Y
Kd [1]: ≥ 10 µM
yeast surface expression [2]: 0.203

chain 1 S101W G109T
Kd [1]: ≥ 10 µM
yeast surface expression [2]: 0.212
